# Results published in PMC2190708 (Nucleic Acids Research, 2007).
# T1: CthPnkp (Acetivibrio thermocellus, UniProt A3DJ38)
# T1 sequence (A3DJ38 1-870): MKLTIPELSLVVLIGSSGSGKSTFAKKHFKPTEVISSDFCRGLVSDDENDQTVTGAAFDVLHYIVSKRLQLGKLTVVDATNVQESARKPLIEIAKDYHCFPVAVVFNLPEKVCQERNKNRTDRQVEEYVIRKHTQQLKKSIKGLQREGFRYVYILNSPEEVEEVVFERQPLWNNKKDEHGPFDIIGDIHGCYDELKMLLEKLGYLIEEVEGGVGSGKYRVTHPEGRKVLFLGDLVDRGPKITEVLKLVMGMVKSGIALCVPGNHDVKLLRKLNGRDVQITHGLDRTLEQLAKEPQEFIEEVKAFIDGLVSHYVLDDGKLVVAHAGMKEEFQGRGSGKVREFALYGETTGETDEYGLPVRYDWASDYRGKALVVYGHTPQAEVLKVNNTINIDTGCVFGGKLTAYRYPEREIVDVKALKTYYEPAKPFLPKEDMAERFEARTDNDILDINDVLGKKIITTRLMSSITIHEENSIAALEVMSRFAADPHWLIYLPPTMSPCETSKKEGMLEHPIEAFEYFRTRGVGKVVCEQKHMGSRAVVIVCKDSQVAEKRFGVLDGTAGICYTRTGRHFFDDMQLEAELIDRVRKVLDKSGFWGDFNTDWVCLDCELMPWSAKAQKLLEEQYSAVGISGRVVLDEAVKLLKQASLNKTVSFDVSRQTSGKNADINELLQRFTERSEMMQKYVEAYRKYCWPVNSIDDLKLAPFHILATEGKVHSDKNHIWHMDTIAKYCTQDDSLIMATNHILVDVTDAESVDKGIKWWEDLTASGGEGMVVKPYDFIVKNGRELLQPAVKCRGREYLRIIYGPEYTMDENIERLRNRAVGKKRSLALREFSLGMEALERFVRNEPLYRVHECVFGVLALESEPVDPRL
# B1: λ-Pase (Escherichia phage Lambda) (protein)
# chain: MRYYEKIDGSKYRNIWVVGDLHGCYTNLMNKLDTIGFDNKKDLLISVGDLVDRGAENVECLELITFPWFRAVRGNHEQMMIDGLSERGNVNHWLLNGGGWFFNLDYDKEILAKALAHKADELPLIIELVSKDKKYVICHADYPFDEYEFGKPVDHQQVIWNRERISNSQNGIVKEIKGADTFIFGHTPAVKPLKFANQMYIDTGAVFCGNLTLIQVQGEGA
# Assays:
# [1] = target: T1, CthPnkp; assay: p-nitrophenol release; type: biochemical; details: Tris-HCl pH 7.0, 0.5 mM MnCl2, data not shown
# [2] = substrate: O=[N+]([O-])c1ccc(OP(=O)(O)O)cc1; assay: purified protein; details: Mn2+; exact conditions of titration not given, data not shown
# [3] = substrate: O=[N+]([O-])c1ccc(OP(=O)(O)Oc2ccc([N+](=O)[O-])cc2)cc1; assay: purified protein; details: Mn2+; exact conditions of titration not given, data not shown
Molecule,Km [1] [mM],Km [2] [mM],Km [3] [mM]
"O=[N+]([O-])c1ccc(OP(=O)(O)c2ccccc2)cc1 [compound ②, p-nitrophenyl phenylphosphonate]",67,,
B1,,5.0 ± 0.1,10 ± 1.6
